Data: paper PMC9071441 (2022)

B1: mNeonGreen-tagged T-bet DNA binding domain (aa 135-326), wild type [mouse] / mTagBFP-tagged GATA3 DNA binding domain (aa 259-369) [not stated] (parent complex)
chain 1: KLRVALSNHLLWSKFNQHQTEMIITKQGRRMFPFLSFTVAGLEPTSHYRMFVDVVLVDQHHWRYQSGKWVQCGKAEGSMPGNRLYVHPDSPNTGAHWMRQEVSFGKLKLTNNKGASNNVTQMIVLQSLHKYQPRLHIVEVNDGEPEAACSASNTHVFTFQETQFIAVTAYQNAEITQLKIDNNPFAKGFREN
chain 2: not shown

Variants of: B1
Test: flow-cytometric FRET; HEK293T cells; parent: 0.036; read off a plot

Row | Variant | response [DFRET]
1 | chain 1 V124W | ~0.025
2 | chain 1 K26A | ~0.018
3 | chain 1 R29A, chain 1 R30A | ~-0.004
4 | chain 1 E76A | ~0.043
5 | chain 1 I123E | ~-0.001
6 | chain 1 Q126A | ~0.031
7 | chain 1 R190W | ~-0.001
8 | chain 1 K113L | ~0.041
